# Measurements published in patent US20220380463A1 (Adimab, published 2022).
# T1: Cynomolgus CD3εδ Fc heterodimer (Cy CD3ε Fc / CD3δ Fc-HIS) (cynomolgus, UniProt Q95LI8 22-100)
# T1 chain 1: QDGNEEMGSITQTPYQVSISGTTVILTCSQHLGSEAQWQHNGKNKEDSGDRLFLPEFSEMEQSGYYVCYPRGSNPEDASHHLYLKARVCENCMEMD
# T1 chain 2: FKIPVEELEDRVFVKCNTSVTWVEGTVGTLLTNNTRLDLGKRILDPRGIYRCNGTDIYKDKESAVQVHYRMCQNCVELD
# Biological target: T1, Cynomolgus CD3εδ Fc heterodimer (Cy …)
# Assay: BLI (Octet), IgG on AHC sensor, pH 6.0
row,Binder,koff [s⁻¹]
1,"SAD10320_P03_F08 (ADI-57378) (antibody, V domains shown, IgG; also called Ab96) VH: QVQLVQSGAEVKKPGASVKVSCKASGFNIKDYYMHWVRQAPGQRLEWMGWIDLENANTIYDAKFQGRVTITRDTSASTAYMELSSLRSEDTAVYYCARDAYGHDFYDVWGQGTLVTVSS VL: DIVMTQSPDSLAVSLGERATINCKSSQSLLNARPGKNYLAWYQQKPGQPPKLLIYWASTRESGVPDRFSGSGSGTDFTLTISSLQAEDVAVYYCKQSYSRRTFGGGTKVEIK",0.00268
2,"SAD10320_P03_H08 (ADI-57379) (antibody, V domains shown, IgG; also called Ab97) VH: QVQLVQSGAEVKKPGASVKVSCKASGFNIKDYYMHWVRQAPGQRLEWMGWIDLENANTIYDAKFQGRVTITRDTSASTAYMELSSLRSEDTAVYYCARDAYGHVFYDVWGQGTLVTVSS VL: DIVMTQSPDSLAVSLGERATINCKSSQSLLNASTAKNYLAWYQQKPGQPPKLLIYWASTRESGVPDRFSGSGSGTDFTLTISSLQAEDVAVYYCKQSYRHRTFGGGTKVEIK",0.015
3,"SAD10320_P03_A09 (ADI-57380) (antibody, V domains shown, IgG; also called Ab98) VH: QVQLVQSGAEVKKPGASVKVSCKASGFNIKDYYMHWVRQAPGQRLEWMGWIDLENANTIYDAKFQGRVTITRDTSASTAYMELSSLRSEDTAVYYCARDAYGHVFYDVWGQGTLVTVSS VL: DIVMTQSPDSLAVSLGERATINCKSSQSLLNARTGKNYLAWYQQKPGQPPKLLIYWASTRESGVPDRFSGSGSGTDFTLTISSLQAEDVAVYYCKQSSHRRTFGGGTKVEIK",0.0029
4,"SAD10320_P03_C09 (ADI-57381) (antibody, V domains shown, IgG; also called Ab99) VH: QVQLVQSGAEVKKPGASVKVSCEASGFNIKDYYMHWVRQAPGQRLEWMGWIDLENANTIYDAKFQGRVTITRDTSASTAYMELSSLRSEDTAVYYCARDAYGHVFYDVWGQGTLVTVSS VL: DIVMTQSPDSLAVSLGERATINCKSSQSLLNARTGKNYLAWYQQKPGQPPKLLIYWASTRESGVPDRFSGSGSGTDFTLTISSLQAEDVAVYYCKQSYLHRTFGGGTKVEIK",0.0051
5,"SAD10320_P03_F09 (ADI-48656) (antibody, V domains shown, IgG; also called Ab101) VH: QVQLVQSGAEVKKPGASVKVSCKASGFNIKDYYMHWVRQAPGQRLEWMGWIDLENANTIYDAKFQGRVTITRDTSASTAYMELSSLRSEDTAVYYCARDAYGHDFYDVWGQGTLVTVSS VL: DIVMTQSPDSLAVSLGERATINCKSSQSLLNARTGKNYLAWYQQKPGQPPKLLIYWASTRESGVPDRFSGSGSGTDFTLTISSLQAEDVAVYYCKQSYHRRTFGGGTKVEIK",0.00719
6,"SAD10320_P04_A10 (ADI-57382) (antibody, V domains shown, IgG; also called Ab103) VH: QVQLVQSGAEVKKPGASVKVSCKASGFNIKDYYMHWVRQAPGQRLDWMGWIDLENANTIYDAKFQGRVTITRDTSASTAYMELSSLRSEDTAVYYCARDAYGHDFYDVWGQGTLVTVSS VL: DIVMTQSPDSLAVSLGERATINCKSSQSLLNARTGKNYLAWYQQKPGQPPKLLIYWASTRESGVPDRFSGSGSGTDFTLTISSLQAEDVAVYYCKQSYSRRTFGGGTKVEIK",0.0144
7,"SAD10320_P04_C10 (ADI-57383) (antibody, V domains shown, IgG; also called Ab104) VH: QVQLVQSGAEVKKPGASVKVSCKASGFNIKDYYMHWVRQAPGQRLEWMGWIDLENANTIYDAKFQGRVTITRDTSASTAYMELSSLRSEDTAVYYCARDAYGHAFYDVWGQGTLVTVSS VL: DIVMTQSPDSLAVSLGERATINCKSSQSLLNARTGKNYLAWYQQKPGQPPKLLIYWASTRESGVPDRFSGSGSGTDFTLTISSLQAEDVAVYYCKQSYHQRTFGGGTKVEIK",0.0187
8,"SAD10320_P04_D10 (ADI-57384) (antibody, V domains shown, IgG; also called Ab105) VH: QVQLVQSGAEVKKPGASVKVSCEASGFNIKDYYMHWVRQAPGQRPEWMGWIDLENANTIYDAKFQGRVTITRDTSASTAYMELSSLRSEDTAVYYCARDAYGHVFYDVWGQGTLVTVSS VL: DIVMTQSPDSLAVSLGERATINCKSSQSLLNARTGKNYLAWYQQKPGQPPKLLIYWASTRESGVPDRFSGSGSGTDFTLTISSLQAEDVAVYYCKQSYLHRTFGGGTKVEIK",0.0171
